Assay: yeast display, Sf9 membrane polyspecificity reagent, FACS + sequencing; frameworks hold sequencing errors
How it was run: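 A synthetic nanobody library was expressed on Saccharomyces cerevisiae BJ5465 by galactose induction for 36–48 hours. The library was stained for 1 hour at 4 °C with 10% biotinylated, detergent-solubilized Sf9 membrane reagent and enriched with streptavidin microbeads before FACS. Low and high (top ~1%) gates were set on anti-HA fluorescence for expression and streptavidin fluorescence for reagent binding, and each polyreactivity label reflects the gate of origin.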

QVQHVESRGGLVQAGGSLRLSCAASGLIFTCNAMGWYRQAPGKERELVAAISTGGSTSYADSVKGRFTIARDNAKNTVYLQMNSLKPEDTAVYYCARDSSIWSHGSWYDYWGQGTQVTVSS
polyreactivity (PSR sort gate): low polyreactivity

QVQLVESGGGLVQAGGSLRLSCAASGSIFRWYAMGWYRQAPGKERELVASITRSGGRTYYADSVKGRFTISRDNAKNTVYLQMNSLKPEDTAVYYCAADYYAYWYRYRYYYWGQGTQVTVSS
polyreactivity (PSR sort gate): high polyreactivity

QVQLVESGGGLVQAGGSLRLSCAASGITFNRNAMGWYRQAPGKERELVAAISSDGNTNYADSVKGRFTISRDNAKNTVYLQMNSLKPEDTAVYYCAAPVIQITDVWYDAETYPDYDYWGQGTQVTVSS
polyreactivity (PSR sort gate): low polyreactivity

QVQLVESGGGLVQAGGSLRLSCAASGRIFRYNAMGLYRQAPGKERELVAAISRGGSSTYYADSVKGRFTISRDNAKNTVYLQMNSLKPEDTAVYYCNARSVVREFNYWGQGTQVTVSS
polyreactivity (PSR sort gate): high polyreactivity

QVQLVESGGGLVQAGGSLRLSCAASGRTLTQNAMGWYRQAPGKERELVATISWTAGSTYYADSVKGRFTISRDNAKNTVYLQMNSLKPEDTAVYYCAADVFYSIYDYWGQGTQVTVSS
polyreactivity (PSR sort gate): low polyreactivity

QVQLVESGGGLVQAGGSLRLSCAASGSIFIGNAMGWYRQAPGKERELVAVISKGGGRTYYADSVKGRFTISRDNAKNTVYLQMNSLKPEDSAVYYCNTRNPHRGDYWGQGTQVTVSS
polyreactivity (PSR sort gate): high polyreactivity

QVQLVESGGGLVQAGGSLRLTCAASGITFLHYAMGWYRQAPGKERELVATISRRGGSTYYADSVKGRFTNSRDNAKYTVYLQLNSLKPEDTAVYYCAADSYYLRHYSAGYYFKRYYWGQGTQVTVSS
polyreactivity (PSR sort gate): high polyreactivity

QVQLVESGGGLVQAGGSLRLSCAASGSTFNANAMGWYRQAPGKERELVAGISSGGSTYADSVKGRFTISRDNAKNTVYLKMNSLKPEDTAVYYCNADFYSWYPTFYWYDYWGQGTQVTVSS
polyreactivity (PSR sort gate): high polyreactivity

QVHLVESGGGLVQAGGSLRLSCAASGSTFAYNAMGWYRTAPGKERELVAAISSSGGRTYYADSVKGRFTLSRDNAKNTVYLQMISLKPEDTAVYYCNAAYYYTYGYWGQGTEVTVSS
polyreactivity (PSR sort gate): high polyreactivity

QVQLVESGGGLVQAGGSLRLSCAASGSIFNVYAMGWYRQAPGKERELVAAISDGDGSTFYADSVKGRFTISRDNAKNTVYLQMNSLKPEDTAVYYCAKDYRWDSKFDYWGQGTQVTVSS
polyreactivity (PSR sort gate): low polyreactivity

QVQLVESGGGLVQAGGSLRLSCAASGRIFYRYAMGWYRQAPWKEWELVADISSGTSTNYADSVKGRFTLSRDNAKNTVDLQMNSLKPEDTAVYYCAADEVRSAWRCSSPPDYDHWGQGTQVTVSS
polyreactivity (PSR sort gate): low polyreactivity

QVQLVESGGGLVQAGGSLRLSCAASGSIFTLYAMGRYRQAPGKERELVAAITWSGGSSYYADSVKGRFTISRDNAKNTVYLQMNSLKPEDTAVYYCAKDYLAGGPWEGLVEREYDYWGQGTQVTVSS
polyreactivity (PSR sort gate): low polyreactivity

QVQLVESGGGLVQAGGSLRLSCAASGRIFRYNAMGWYRQAPGKERELVASITSAGSTIYADSVKGRFTISRDNAKNTVYLQMNSLKPEDTAVYYCNKRRAYGYYLFDYWGQGTQVTVSS
polyreactivity (PSR sort gate): high polyreactivity

QVQLVESGGGLVQAGGSLRLSCAASGSTFYPNAMGWYRQAPGKERELVADISYSGGRTYYADSVKGRFTISRDNAKNTVYLQMNSLKPEYTAVYYCAARKVTYHYQWMDYWGQGTQVTVSS
polyreactivity (PSR sort gate): low polyreactivity

QVQLVESGGGLVQAGGSLRLSCAASGRIFDYYAMGWYRQAPGKERELVASISRSGGSTYYADSVKGRFTISRDNAKNTVYLQMNSLKPEDTAVYYCAARRGYYYGRVGYWGQGTQVTVSS
polyreactivity (PSR sort gate): high polyreactivity

QVQLVESGGGLVQAGGSLRLSCAASGRIFTYYTMGGYRQAPGKERELVATINSSGGSTYYADSVKGRFTISRDNAKNTVYLQMNRLKPEDTAVYYCNDAYKSQVRYRRYNYWGQGTQVTVSS
polyreactivity (PSR sort gate): high polyreactivity

QVQLVESGGGLVQAGGSLRLSCAASGITFRRYGMGWYRQAPGKERELVATITSSVGSRTYYADSVKGRFTISRDNAKNTVYLQMNSLKPEDTAVYYCAADHRVYDYEYWGQGTQVTVSS
polyreactivity (PSR sort gate): low polyreactivity

QVQLVESGGGLVQAGGSLRLSCAASGSTFVSYDMGWYRQAPGKERELVATIRRGGSTYYADSVKGRFTISRDNAKNTVYLQMNSLKPEDTAVYYCAAQQYAKYGWYAYDYWGQGTQVTVSS
polyreactivity (PSR sort gate): low polyreactivity

QVQLVESGGGLVQAGGSLRLSCAASGSTFYLNALGGYRQAPGKEREFVAAIDTGTGTYYADSVKGRFTISRDNAKNTVYLQMNRLKPEDTAVYYCAKDDLLVVRNVWFDYWGQGTQVTVSS
polyreactivity (PSR sort gate): low polyreactivity

QVQLVESGGGLVQAGGSLRLSCAASGRMFKYSDMGWYRQAPGKERALVAGISISGSTSYADSVKGRFTISRDNAKNTVYLQMNSLKPEDTAVYYCAADSRGGYPSLYEYDYWGQGTQETVSS
polyreactivity (PSR sort gate): low polyreactivity

QVQLVESGGGLVQAGGSLRLTCAASGFTFARNTMGWYRQAPGKERELVAAISKNGGSTYYADSVKGRFTISRDNAKNTVYLQMNSLTPEDTAVYYCNTYPSKVGRYSVKDYEYGYWGQGTQVTVSS
polyreactivity (PSR sort gate): high polyreactivity

QVQLVESGGGLVQAGGSLRLSCAASGITFITYAMGWYRQAPGKERELVAAISIRGGSTYYADSVKGRFTISRDNAKNTVYLQMNSLKPEDTAVYYCAKDNRSYTYDYWGQGTQVTVSS
polyreactivity (PSR sort gate): low polyreactivity

QVQLVESGGGLVQAGGSLRLSCAASGSTFFIWNAMGWYRQAPGKERELVAGITRGGSTNYADSVKGRFTISRDNAKNTVYLQMNSLKPEDTAVYYCAADGTVVYGYDYWGQGTQVTVSS
polyreactivity (PSR sort gate): low polyreactivity

QVQLVESGGGLVQAGGSLRLSCAASGSTFQGYAMGWYRQAPGKERELVAAISWNGGSTYYADSVKGRFTISRDNAKNTVYLQMNSLKPEDTAVYYCAAYSFAYRFNYWGQGTQVTVSS
polyreactivity (PSR sort gate): high polyreactivity

QVQLVESGGGLVQAGGSLRLSCAASGRTFTYYAMGWYRQAPGKQRELVASINQNGGDTYYADSVKGRFTLSRDNAKNTDYLQMNSLKPADTAVYYCAAEAGYYVQTVAVDMGYWGQGTQVTVSS
polyreactivity (PSR sort gate): low polyreactivity

QVHLVESGGGLVQAGCSLRVSCAASGRIFLYTGKGWSRQAAGKERELVAAISSGGSTYYADSVKGRFTISRDNAKNTVYLQMNSLKPEDTAVYYCAKEGHVVIFYIGQYELDFWGQGTQVTVSS
polyreactivity (PSR sort gate): low polyreactivity

QVQLVESGGGLVQAGGSLRLSCAASGFTFGYYAMGWYRQAPGKERELVATIDRGGGTSYADSVKGRFTISRDNAKNTVYLQMNSLKPEDTAVYYCNRACYGAKARRYRSYWGQGTQVTVSS
polyreactivity (PSR sort gate): high polyreactivity

QVQLVESGGGLVHAGGILRLSCAASGRTFPYYAMGWYRQAPGKERELVAAISSSGGGTYYADSVKGRFTISRDTAKNTVYLQMNSLKPEDTAVYYCNAVSYYQDSFYYWGQGTQVTVSS
polyreactivity (PSR sort gate): high polyreactivity

QVQLVESGGGLVQAGGSLRLSCAASGRIFGGNAMGWYRQAPGKERELVAAITWGGSTNYADSVKGRFTISRDNAKNTVYLQMNRLKPEDTAVYYCNADPVRDTYWHPETQQWYGYWGQGTQVTVSS
polyreactivity (PSR sort gate): low polyreactivity

QVQLVESGGGLVQAGGSLRLSCAASGRTFNLYAMVWSRQAPGKERELVAAISLSGGRTYYADSVKGRITISRDNAKNTVFLQMNRLNPEDTAVYYCNTDTSRRAVQYDYWGQGTQVSVSS
polyreactivity (PSR sort gate): high polyreactivity

QVQLQDSGGGLVQAGGSLGLSCAASGYIFGSGSMGWFRQAPGKERELVATINNGSSTYYADSVKGRFTISRDNSKNTVSLQMNSLKPEDTAVYYCAVYLYRLTFFYYWGQGNQVTVSS
polyreactivity (PSR sort gate): high polyreactivity

QVQLVESGGGLVQAGGSLRLSCAASGFTFKINGKGWYRQAPGKEREFVATIRTSTGRTYYADSVKGRFTISRDNAKNTVYLQMNSLKPEDTAVYYCATDYLFERLLQEMDYWGQGTQVTVSS
polyreactivity (PSR sort gate): high polyreactivity

QVQLVESGGGLVQAGGSLRLSCAASGSTFTLNAMGWYRQAPGKERELVADISWSSGRTYYADSVKGRFTISRDNAKNTVYFQMNSLKPEDTAVYYCATDDFWNVKFYAYYPEFDYWGQGTQVTVSS
polyreactivity (PSR sort gate): low polyreactivity

QVQLVDSGGGLVQAGGSLRLTCAASGRIFCDNAMGWYRQEPGKERELVAAISDSVVITYYADSVKGRFTISRDNAKNTVYLQMNSLKPEDTAVYYCAADKRGTVYLSSFWMDYWGQGTQVTVSS
polyreactivity (PSR sort gate): low polyreactivity

QVQLVESGGGLVQAGGSLRLSCAASGFIFGPNAMGWYIQAPGKERELVAAITWSSGRTYYADSVKGRFTISRDNAKNTVYLQMNSLKPEDTAVYYCAADFSRAVLRGNYWGQGTQVTVSS
polyreactivity (PSR sort gate): high polyreactivity

QVQLVESGGGLVQAGGSLRLSCAASGRTFYRNAMGWSRQAPGKEREFVAVISVSGGSTYYADSVKGRFTISRDNAKNTVYLQMNSLKPEDTAVYYCAKRGPVRKTAYDYWGQGTQVTVSS
polyreactivity (PSR sort gate): low polyreactivity

QVQLEESGGGLVQAGGSLRLSCAASGRIFPRYAMGWYRQAPGKERELVATISSGGSTYYADSVKGRFTISRDNATNTVYLQMNSLTPEDTAVYYCAARKRPYSVINGMDYWGQGTQVTVSS
polyreactivity (PSR sort gate): low polyreactivity

QVQLVESGGGLVQAGGSLRLSCAASGYTFYRYTMGWYRQAPGKERELVAAINSGGSTNYADSLKGRFTISRDNAKYTVYLQMNSLKPEDTAVYYCARRYQTWPRWYDYWGQGTQVTVSS
polyreactivity (PSR sort gate): high polyreactivity

QFQLVESGGGLVQAGGSLRLSCAASGSIFYYNAMGCYRQAPGKEREVVAAISWSGGSTYYADSVKGRFTISRDNAKNTVYLQMNSLKPEDTAVYYCNAVGWYTYFYGSRKYNSWGQGTQVTVSS
polyreactivity (PSR sort gate): low polyreactivity

QVQLVESGGGLVQAGGSLRLSCAASGSIFYVYAMGWYRQAPGKERELVAAITNYADSVKGRFTISRDNAKNTVYLQMNSLKPEDTAVYYCAADWWRVEMDYWGQGTQVTVSS
polyreactivity (PSR sort gate): low polyreactivity

QVQLEESGGGLVQAGGSLRLSCAASGRIFGYYDMGWYRQAPGKERELVARITRGGGTTYYADSVKGRFTISRDNAKNTVYLQMNSLKPEDTAVYYCAAVRSWWHTHYNYDYWGQGTQVTVSS
polyreactivity (PSR sort gate): high polyreactivity

QVQLVESGGGLVQAGGSLRLSCAASGRIITYNAMGWYRQAPGKERELVAAISTTGGRTYYADSVKGRFTISRDNAKNTVYLQMNSLKPEDTAVYYCNAVLKRPLAYHVTYDYWGQGTQVTVSA
polyreactivity (PSR sort gate): high polyreactivity

QVKLVESGGGLVQAGGSLRLSFAASAGTFNSYAKGWYRQEPGKERELVATISYSGGSTYYADSVKGRFTISRDNAKYTVYLQMNSLKPEDTAVYYCAKVRYYPYSPGGLDYWGQGTQVTVSS
polyreactivity (PSR sort gate): low polyreactivity
